Numbering of substitutions follows the chain as printed.
Legend:
[1] = target: T1, ALCAM (Activated leukocyte cell adhesion molecule) (Homo sapiens (Human), UniProt Q13740 28-583); assay: antigen assigned by the filing's classifying and identification method; details for this clone not given
T1 construct: Native protein on cancer cell lines; also called CD166 antigen; CD166
T1 sequence: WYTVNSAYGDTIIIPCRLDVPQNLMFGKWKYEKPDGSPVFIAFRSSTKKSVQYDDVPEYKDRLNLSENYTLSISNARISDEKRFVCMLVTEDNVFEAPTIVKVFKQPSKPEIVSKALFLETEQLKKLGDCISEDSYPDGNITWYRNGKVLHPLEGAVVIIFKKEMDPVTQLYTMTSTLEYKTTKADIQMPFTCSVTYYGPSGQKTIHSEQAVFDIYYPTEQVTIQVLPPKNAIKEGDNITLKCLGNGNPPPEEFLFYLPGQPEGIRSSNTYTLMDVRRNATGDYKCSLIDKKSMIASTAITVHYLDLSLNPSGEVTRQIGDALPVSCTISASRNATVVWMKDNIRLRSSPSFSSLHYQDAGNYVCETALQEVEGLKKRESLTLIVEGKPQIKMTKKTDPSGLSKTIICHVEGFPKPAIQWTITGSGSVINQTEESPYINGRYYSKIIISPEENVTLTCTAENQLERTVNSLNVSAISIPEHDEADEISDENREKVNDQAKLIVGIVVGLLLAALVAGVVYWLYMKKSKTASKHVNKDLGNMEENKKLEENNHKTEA

[2] = target: T1, ALCAM (Activated leukocyte cell …); assay: flow cytometry histograms on various cell lines, antigen identified later
[3] = target: T2, LAR (Leukocyte common Antigen-Related) (Homo sapiens (Human), UniProt P10586 30-1907, limits assumed); assay: antigen assigned by the filing's classifying and identification method; details for this clone not given
T2 construct: also called PTP-LAR; protein tyrosine phosphatase receptor type F (PTPRF)

[4] = target: T1, ALCAM (Activated leukocyte cell …); assay: immunoprecipitation from biotin-labelled cell lysate with pp type antibody, mass spectrometry
[5] = target: T3, HGFR (Hepatocyte growth factor receptor) (Homo sapiens (Human), UniProt P08581 25-1390); assay: antigen assigned by the filing's classifying and identification method; details for this clone not given
T3 construct: also called Met
T3 sequence (P08581 25-1390 L1272V limits assumed): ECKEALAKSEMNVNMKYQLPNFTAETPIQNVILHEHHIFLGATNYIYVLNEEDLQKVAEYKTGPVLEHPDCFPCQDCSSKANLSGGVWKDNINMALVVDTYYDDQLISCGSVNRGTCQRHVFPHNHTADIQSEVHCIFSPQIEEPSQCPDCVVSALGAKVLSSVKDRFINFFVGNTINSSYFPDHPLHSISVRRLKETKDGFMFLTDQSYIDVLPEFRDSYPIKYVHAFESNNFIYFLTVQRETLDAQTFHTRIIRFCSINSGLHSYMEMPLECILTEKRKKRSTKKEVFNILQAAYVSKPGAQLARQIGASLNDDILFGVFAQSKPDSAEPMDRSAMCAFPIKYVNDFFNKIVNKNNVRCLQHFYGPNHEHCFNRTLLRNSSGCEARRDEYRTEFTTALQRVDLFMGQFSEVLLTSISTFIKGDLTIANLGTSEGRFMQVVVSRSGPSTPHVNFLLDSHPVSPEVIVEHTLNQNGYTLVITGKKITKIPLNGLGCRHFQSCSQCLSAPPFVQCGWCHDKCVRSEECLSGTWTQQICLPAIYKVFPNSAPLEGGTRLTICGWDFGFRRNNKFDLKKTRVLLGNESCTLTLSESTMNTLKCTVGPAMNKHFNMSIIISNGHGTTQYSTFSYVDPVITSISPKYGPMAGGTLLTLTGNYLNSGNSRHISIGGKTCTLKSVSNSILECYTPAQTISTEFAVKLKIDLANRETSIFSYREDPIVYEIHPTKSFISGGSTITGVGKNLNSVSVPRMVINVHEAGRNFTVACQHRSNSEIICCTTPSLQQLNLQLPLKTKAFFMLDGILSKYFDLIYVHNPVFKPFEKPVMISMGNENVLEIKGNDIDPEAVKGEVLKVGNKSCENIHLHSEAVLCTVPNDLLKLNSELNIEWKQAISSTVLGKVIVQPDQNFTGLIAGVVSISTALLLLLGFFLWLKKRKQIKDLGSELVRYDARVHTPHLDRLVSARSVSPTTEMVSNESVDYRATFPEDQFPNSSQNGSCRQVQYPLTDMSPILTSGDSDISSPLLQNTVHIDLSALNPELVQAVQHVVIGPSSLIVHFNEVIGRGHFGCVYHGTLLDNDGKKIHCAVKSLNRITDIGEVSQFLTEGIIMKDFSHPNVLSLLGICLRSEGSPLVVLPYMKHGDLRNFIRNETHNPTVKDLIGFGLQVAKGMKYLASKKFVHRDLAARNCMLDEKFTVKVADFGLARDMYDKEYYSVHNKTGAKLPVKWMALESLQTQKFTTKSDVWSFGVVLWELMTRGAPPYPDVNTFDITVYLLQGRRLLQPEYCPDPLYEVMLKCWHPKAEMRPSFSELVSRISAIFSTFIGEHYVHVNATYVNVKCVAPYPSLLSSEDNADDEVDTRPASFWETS

[6] = target: CD44 (Homo sapiens (Human), UniProt P16070 24-742); assay: as above
Sequence of CD44 (P16070 24-742): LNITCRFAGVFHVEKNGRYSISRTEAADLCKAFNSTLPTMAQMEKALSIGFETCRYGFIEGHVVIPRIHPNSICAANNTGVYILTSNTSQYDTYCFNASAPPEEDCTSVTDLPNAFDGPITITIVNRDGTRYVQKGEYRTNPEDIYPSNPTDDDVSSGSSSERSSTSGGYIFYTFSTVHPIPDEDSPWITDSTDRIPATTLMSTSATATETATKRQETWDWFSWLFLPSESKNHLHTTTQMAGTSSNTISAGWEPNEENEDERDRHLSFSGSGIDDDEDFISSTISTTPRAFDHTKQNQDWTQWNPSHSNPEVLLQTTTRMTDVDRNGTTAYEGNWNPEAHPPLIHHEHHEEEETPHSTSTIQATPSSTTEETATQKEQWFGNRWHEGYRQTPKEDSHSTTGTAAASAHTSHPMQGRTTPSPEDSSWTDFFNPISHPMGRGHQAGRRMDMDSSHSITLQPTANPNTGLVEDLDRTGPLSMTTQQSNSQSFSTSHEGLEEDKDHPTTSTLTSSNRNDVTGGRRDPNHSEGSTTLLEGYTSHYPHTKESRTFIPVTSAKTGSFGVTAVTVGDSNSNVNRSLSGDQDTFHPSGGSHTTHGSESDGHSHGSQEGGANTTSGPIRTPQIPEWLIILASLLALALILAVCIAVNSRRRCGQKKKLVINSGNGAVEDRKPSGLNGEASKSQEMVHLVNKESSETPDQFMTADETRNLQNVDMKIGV

[7] = target: T4, EpCAM (Homo sapiens (Human), UniProt P16422 24-314); assay: as above
T4 chain: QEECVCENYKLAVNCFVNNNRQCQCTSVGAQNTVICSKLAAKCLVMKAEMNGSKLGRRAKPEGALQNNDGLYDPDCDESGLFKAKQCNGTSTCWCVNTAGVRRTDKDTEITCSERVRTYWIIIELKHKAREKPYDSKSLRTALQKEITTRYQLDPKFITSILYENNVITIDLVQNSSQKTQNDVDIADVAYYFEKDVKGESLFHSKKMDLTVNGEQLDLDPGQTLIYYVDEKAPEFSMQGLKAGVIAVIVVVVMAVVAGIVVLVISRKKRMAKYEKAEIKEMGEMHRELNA

[8] = target: T5, CD73 (Homo sapiens (Human), UniProt P21589 27-549, limits assumed); assay: as above
T5 construct: also called 5-prime-ribonucleotide phosphohydrolase
T5 sequence: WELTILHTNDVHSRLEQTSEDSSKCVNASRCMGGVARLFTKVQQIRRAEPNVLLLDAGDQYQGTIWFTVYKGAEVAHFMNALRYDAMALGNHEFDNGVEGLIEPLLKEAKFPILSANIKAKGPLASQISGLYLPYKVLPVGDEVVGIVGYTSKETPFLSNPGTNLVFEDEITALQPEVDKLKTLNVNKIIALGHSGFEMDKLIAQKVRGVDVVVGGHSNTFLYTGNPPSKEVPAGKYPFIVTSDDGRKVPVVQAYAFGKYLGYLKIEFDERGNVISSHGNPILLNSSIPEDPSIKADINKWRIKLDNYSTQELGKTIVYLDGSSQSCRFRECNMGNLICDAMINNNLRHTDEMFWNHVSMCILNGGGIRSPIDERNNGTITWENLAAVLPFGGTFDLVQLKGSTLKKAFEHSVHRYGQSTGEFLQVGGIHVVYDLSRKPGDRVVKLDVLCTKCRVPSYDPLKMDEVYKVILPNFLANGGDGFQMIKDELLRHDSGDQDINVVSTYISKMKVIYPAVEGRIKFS

B1: 083-131 antibody (antibody, V domains shown)
VH: EVQLVESGGGVVQPGRSLRLSCAASGFTFDDYAMHWVRQAPGKGLEWVSGISWNSGSIGYADSVKGRFTISRDNAKNSLYLQMNSLRAEDTAVYYCATEEWWRFDLWGRGTLVTVSR
VL: QSALTQPPSASGSPGQSVTISCTGTSSDVDDYNYVSWYQQHPGKAPKLMIYEVTKRPSGVPDRFSGSKSGNTASLTISGLQAEDEADYYCSSYVGSDNRVFGTGTKVTVPG
notes: Clone of the scFv-CL-cp3 phage library
binding result [1]: binds

B2: 040-107 antibody (antibody, V domains shown)
VH: EVQLVESGGGVVQPGGSLRLSCAASGFNFDVYGMNWVRQVPGKGLEWVSLINGDGGLRYYADSVKGRFTVSRDNSRNSLYLQMNSLRSEDTALYYCVKGNFQQWGQGTLVTVSR
VL: SYVLTQPPSVSVAPGKTARITCGGNNIGSKSVHWYQQKPGQAPVLVIYYDSDRPSGIPERFSGSNSGNTATLTISRVEAGDEADYYCQVWDSSSDHVVFGGGTKLTVLG
notes: Clone of the scFv-CL-cp3 phage library; pp type (protein A fusion) used for immunoprecipitation
binding result [2]: binds

B3: 065-358 antibody (antibody, V domains shown)
VH: EVQLVESGGGLVQPGGSLRLSCAASGFTFSSYSMNWVRQAPGKGLEWVSYISSSSSTIYYADSVKGRFTISRDNAKNSLYLQMNSLRDEDTAVYYCARDNLEGLDYWGQGTLVTVSR
VL: B2 VL
notes: as for B1
binding result [3]: binds

B4: 041-118 antibody (antibody, V domains shown)
VH: EVQLVESGGGLVQPGGSLRLSCAASGFTFDDYAMHWVRQAPGKGLEWVSLISGDGGSTYYADSVKDRFTISRDNSKNSLYLQMNSLRAEDTAVYYCARGNYFDYWGQGTLVTVSR
VL: SYELTQPLSVSVALGQTARITCGGNNIGSKNVHWYQQKPGQAPVLVIYRDSNRPSGIPERFSGSNSGNTATLTISRAQAGDEADYYCQVWDSSVVFGGGTKLTVLG
notes: as for B2
binding result [4]: binds

B5: 064-044 antibody (antibody, V domains shown)
VH: QVQLVQSGAEVKKPGASVKVSCKVSGYTLTELSMHWVRQAPGKGLEWMGGFDPEDGETIYAQKFQGRVTMTEDTSTDTAYMELSSLRSEDTAVYYCATDLDYYGSGSYAFDIWGQGTTVTVSR
VL: QSALTQPASVSGSPGQSITISCTGTSSDVGSYNLVSWYQQHPGKAPKLMIYEGSKRPSGVSNRFSGSKSGNTASLTISGLQAEDEADYYCSSYTSSSTWVFGGGTKLTVLG
notes: as for B1
binding result [3]: binds

B6: 066-019 antibody (antibody, V domains shown)
VH: QVQLQESGPGLVKPSQTLSLTCTVSGGSISSGDYYWSWIRQPPGKGLEWIGYIYYSGSTYYNPSLKSRVTISVDTSKNQFSLKLSSVTAADTAVYYCARGTGDLEWFDPWGQGTLVTVSR
VL: QSVLTQPPSVSGAPRQTVTISCSGSSSNIGQNSVTWYQRLPGEAPKLLIYYDDLLHSGVSDRFSGSKSGTSASLAISGLQSEDEAEYYCASWDDSLKGPVFGGGTKLTVLG
notes: as for B1
binding result [3]: binds

B7: 035-234 antibody (antibody, V domains shown)
VH: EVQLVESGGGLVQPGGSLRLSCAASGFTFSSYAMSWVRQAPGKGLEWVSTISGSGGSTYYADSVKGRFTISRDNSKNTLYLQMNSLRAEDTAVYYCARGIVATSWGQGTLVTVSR
VL: SYELTQPPSVSVAPGQTARITCGGNKIGSKSVHWYQQKQGQAPVLVIYLDRDRPSGIPERFSGSNSGNTATLTITRVEAEDEADYYCHLWDSGSDQVFGGGTKLTVLG
notes: as for B2
binding result [2]: binds

B8: 067-126 antibody (antibody, V domains shown)
VH: QVQLQESGPGLVKPSGTLSLTCAVSGGSISSSNWWSWVRQPPGKGLEWIGEIYHSGSTNYNPSLKSRVTISVDKSKNQFSLKLSSVTAADTAVYYCARGGSYYFDYWGQGTLVTVSR
VL: QSALTQPASVSGSPGQSITISCTGTISDVGGYDFVSWYQHHPGKAPKLLIYDVNNRPSGVSHRFSGSKSGNTASLTISGLQAEDEATYYCSSYSNRHSLIVFGSGTQVVGLG
notes: as for B1
binding result [5]: binds

B9: 067-287 antibody (antibody, V domains shown)
VH: QVQLQQWGAGLLKPSETLSLTCTVHGGSFDDYYWTWIRQPPGGGLEWIGEMNSGRTYNYNPFLESRASIDVDTFKKQFSLALRSVTAADTAVYYCARGAYVNYYYIDVWGDGTTVTVSR
VL: B8 VL with S17T
notes: as for B1
binding result [5]: binds

B10: 067-133 antibody (antibody, V domains shown)
VH: QVQLQQWGAGLLKPSETLSLTCAVYGGSFSGYYWSWIRQPPGKGLEWIGEINHSGSTNYNPSLKSRVTISVDTSKNQFSLKLSSVTAADTAVYYCARGGGVEALNYGMDVWGQGTTVTVSR
VL: B8 VL with S17T
notes: as for B1
binding result [5]: binds

B11: 079-085 antibody (antibody, V domains shown)
VH: EVQLVESGGGLVQPGGSLRLSCAASGFTFSSYSMNWVRQAPGKGLEWVSYISSSSSTIYYADSVKGRFTISRDNAKNSLYLQMNSLRDEDTAVYYCAREGPRGSYYYFDYWGQGTLVTVSR
VL: NFMLTQPHSVSESPGKTVTISCTRSSGSIASNYVQWYQQRPGSAPTTVIYEDNQRPSGVPDRFSGSIDSSSNSASLTISGLKTEDEADYYCQSYDSSNWVFGGGTKLTVLG
notes: as for B1
binding result [3]: binds

B12: 064-003 antibody (antibody, V domains shown)
VH: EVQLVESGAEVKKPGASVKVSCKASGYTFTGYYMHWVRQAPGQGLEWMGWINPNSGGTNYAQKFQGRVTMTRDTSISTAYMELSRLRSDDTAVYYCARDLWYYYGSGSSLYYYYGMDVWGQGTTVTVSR
VL: QSVLTQPPSVSGAPGQRVTISCTGSSSNIGAGYDVHWYQQLPGTAPKLLIYGNSNRPSGVPDRFSGSKSGTSASLAITGLQAEDEADYYCQSYDSSLSGVVFGGGTKLTVLG
notes: as for B1
binding result [6]: binds

B13: 065-030 antibody (antibody, V domains shown)
VH: QVQLQQWGAGLLKPSETLSLTCAAYGGSFSGYYWSWIRQPPGKGLEWIGEINHSGSTNYNPSLKSRVTISVDTSKNQFSLKLSSVTAADTAVYYCARTYYGSGSYQYNWFDPWGQGTLVTVSR
VL: B12 VL
notes: as for B1
binding result [3]: binds

B14: 067-153 antibody (antibody, V domains shown)
VH: QVQLQESGGGLVQPGGSLRLSCTTSGFTFTSYAMSWVRQAPGKGLEWVSSISGSGGITYYADSVKGRFTISRDNSKNTLYLQMNSLRAEDTAVYYCAKDRVLVPASSSYFDYWGQGTLVTVSR
VL: SSELTQDPAVSVALGQTVRITCQGDSLRSYYASWYQQKPGQAPVLVIYGKNNRPSGIPDRFSGSSSGNTASLTITGAQAEDEADYYCNSRDSSGNHVVFGGGTKLTVLG
notes: as for B1
binding result [7]: binds

B15: 067-213 antibody (antibody, V domains shown)
VH: EVQLVESGGGLVQPGRSLRLSCAASGFTFDDYAMHWVRQAPGKGLEWVSGISWNSGSIGYADSVKGRFTISRDNAKNSLYLQMNSLRAEDTALYYCVRSGSYNYYYYGMDVWGQGTTVTVSR
VL: not shown
notes: as for B1
binding result [8]: binds

Source: patent publication US20090203538A1 (INSTITUTE FOR ANTIBODIES, published 2009)
